The chains are these.
T1: human MerTK on M2c-differentiated human macrophages (human, UniProt Q12866 21-999)
T1 sequence: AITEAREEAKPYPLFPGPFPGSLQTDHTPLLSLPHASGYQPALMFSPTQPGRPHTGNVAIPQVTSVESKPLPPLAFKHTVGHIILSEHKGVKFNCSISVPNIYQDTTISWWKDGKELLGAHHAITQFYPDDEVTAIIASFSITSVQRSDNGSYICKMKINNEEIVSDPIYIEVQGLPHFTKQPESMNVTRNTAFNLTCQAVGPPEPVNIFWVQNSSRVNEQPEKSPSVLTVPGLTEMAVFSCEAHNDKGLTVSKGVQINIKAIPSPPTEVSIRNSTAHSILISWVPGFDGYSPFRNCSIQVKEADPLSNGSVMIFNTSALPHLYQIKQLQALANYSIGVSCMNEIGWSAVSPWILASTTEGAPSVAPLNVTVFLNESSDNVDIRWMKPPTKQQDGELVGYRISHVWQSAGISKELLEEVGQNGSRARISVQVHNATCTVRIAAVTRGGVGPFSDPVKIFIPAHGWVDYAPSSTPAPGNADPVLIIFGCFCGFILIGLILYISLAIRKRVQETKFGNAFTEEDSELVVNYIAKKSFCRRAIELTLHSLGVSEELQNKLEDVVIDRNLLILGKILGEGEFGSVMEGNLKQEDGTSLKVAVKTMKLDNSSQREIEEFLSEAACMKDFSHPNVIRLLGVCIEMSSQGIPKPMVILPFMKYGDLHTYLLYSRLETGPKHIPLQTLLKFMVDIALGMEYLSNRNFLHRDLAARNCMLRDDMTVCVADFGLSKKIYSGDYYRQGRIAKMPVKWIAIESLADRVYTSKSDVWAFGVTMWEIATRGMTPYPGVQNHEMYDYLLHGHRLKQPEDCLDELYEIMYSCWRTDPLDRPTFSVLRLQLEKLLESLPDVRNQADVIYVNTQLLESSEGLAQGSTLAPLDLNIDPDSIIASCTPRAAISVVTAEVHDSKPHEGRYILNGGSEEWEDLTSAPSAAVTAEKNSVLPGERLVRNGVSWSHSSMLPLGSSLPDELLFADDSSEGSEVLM

T2: recombinant murine MerTK extracellular domain (mouse, UniProt Q60805 19-497)
T2 construct: also called moMerTK; mouse MerTK; not shown: PolyHis tag or TEVS/Thrombin/murine IgG2a Fc tag (a commercial human IgG1 Fc fusion is also mentioned); which form was t
T2 sequence: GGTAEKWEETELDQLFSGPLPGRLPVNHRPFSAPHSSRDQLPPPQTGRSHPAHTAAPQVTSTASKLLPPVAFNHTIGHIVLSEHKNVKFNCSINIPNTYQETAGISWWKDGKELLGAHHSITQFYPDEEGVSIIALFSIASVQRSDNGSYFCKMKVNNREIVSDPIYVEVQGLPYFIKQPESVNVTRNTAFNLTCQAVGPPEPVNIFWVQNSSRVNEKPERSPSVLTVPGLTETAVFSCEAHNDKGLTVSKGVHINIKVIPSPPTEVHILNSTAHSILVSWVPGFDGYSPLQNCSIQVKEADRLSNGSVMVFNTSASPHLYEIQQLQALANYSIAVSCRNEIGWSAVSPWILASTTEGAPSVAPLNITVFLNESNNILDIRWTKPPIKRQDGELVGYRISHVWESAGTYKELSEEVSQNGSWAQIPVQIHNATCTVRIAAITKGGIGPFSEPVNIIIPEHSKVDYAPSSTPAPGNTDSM

T3: human MerTK overexpressed on CHO cells (human, UniProt Q12866 21-999)
T3 construct: also called CHO-huMerTK OE; CHO-human MerTK OE cells
T3 sequence: T1 sequence

B1: monovalent anti-MerTK antibody MTK-33.11 (antibody, V domains shown)
VH: QVQLVQSGAEVKKPGASVKVSCKASGYTFTSYWMHWVRQAPGQGLEWIGVIDPSDNYINYNQKFQGRVTMTRDTSTSTVYMELSSLRSEDTAVYYCAREAWTRGYFDYWGQGTLVTVSS
VL: DIQMTQSPSSLSASVGDRVTITCQASRSVRNTVAWYQQKPGKAPKLLIYYASNRYTGVPSRFSGSGSGTDFTFTISSLQPEDIATYYCQQDYRSPFTFGQGTKLEIK
B2: bispecific anti-MerTK MTK-33.11:anti-PDL1 antibody (bispecific antibody, V domains shown)
VH 1: B1 VH
VL 1: B1 VL
VH 2: not shown
VL 2: not shown
B3: bivalent anti-MerTK antibody MTK-33.11 (full IgG) (antibody, V domains shown)
VH: B1 VH
VL: DIQMTQSPSSLSASVGDRVTITCQASRSVRNTVAWYQQKPGKAPKLLIYYASNRYTGVPSRFSGSGSGTDFTFTISSLQPEDIATYYCQQDYRSPFTFGQGTKLEIKR
B4: monovalent anti-MerTK antibody MTK-16.2 (antibody, V domains shown)
VH: QVQLVQSGSELKKPGASVKVSCKASGYTFTNHGMNWVRQAPGQGLEWMGWINTYTGEPTYADDFKGRFVFSLDTSVSTAYLQISSLKAEDTAVYYCARKGVTAARYFDYWGQGTLVTVSS
VL: DIQMTQSPSSLSASVGDRVTITCRASQNVRTAVAWYQQKPGKAPKRLIYLASNRHTGVPSRFSGSGSGTEFTLTISNLQPEDFATYYCLQHWNYPLTFGGGTKLEIK
B5: bivalent anti-MerTK antibody MTK-16.2 (full IgG) (antibody, V domains shown)
VH: B4 VH
VL: DIQMTQSPSSLSASVGDRVTITCRASQNVRTAVAWYQQKPGKAPKRLIYLASNRHTGVPSRFSGSGSGTEFTLTISNLQPEDFATYYCLQHWNYPLTFGGGTKLEIKR
B6: bispecific anti-MerTK MTK-16.2:anti-PDL1 antibody (bispecific antibody, V domains shown)
VH 1: B4 VH
VL 1: B4 VL
VH 2: not shown
VL 2: not shown

In the first assay the target is T1, human MerTK on M2c-differentiated human …. The assay can be described thus: cell-based or functional assay.
For B1, the “Average Efferocytosis blocking IC50” value was 4.45 nM.

Turning to B2, the “Average Efferocytosis blocking IC50” value came out at 4.42 nM.

Consider B3, for which the “Average Efferocytosis blocking IC50” value turned out to be 0.341 nM.

For B4, the “Average Efferocytosis blocking IC50” value turned out to be 37.9 nM.

Turning to B5, the “Average Efferocytosis blocking IC50” value stood at 0.436 nM.

A further assay shares this target. The assay can be described thus: cell-based or functional assay. The source holds these as a separate data set.
As to B1, the “Average IC50 (nM) in the presence of huGas6 (huGas6-mediated pAKT reducing activity)” value amounted to 17.9 nM.

On to B2, for which the “Average IC50 (nM) in the presence of huGas6 (huGas6-mediated pAKT reducing activity)” value was 9.03 nM.

For the molecule B3, the “Average IC50 (nM) in the presence of huGas6 (huGas6-mediated pAKT reducing activity)” value turned out to be 1.25 nM.

For the molecule B4, the “Average IC50 (nM) in the presence of huGas6 (huGas6-mediated pAKT reducing activity)” value came to 15.3 nM.

On to B5, for which the “Average IC50 (nM) in the presence of huGas6 (huGas6-mediated pAKT reducing activity)” value amounted to 3.22 nM.

Turning to B6, the “Average IC50 (nM) in the presence of huGas6 (huGas6-mediated pAKT reducing activity)” value stood at 12.3 nM.

In another assay the target is T2, recombinant murine MerTK extracellular …. The assay can be described thus: SPR (Carterra LSA), antibody immobilized, MerTK ECD as analyte. On the procedure: (§1) Binding kinetics of bispecific anti-MerTK:anti-PDL1 antibodies of the present disclosure to human, cyno, and murine MerTK were evaluated using a Carterra LSA instrument. […] A HC30 sensor chip (Carterra) was activated using the single channel flow cell with a 7-minute injection of a 1:1:1 mixture of 100 mM MES pH 5.5, 100 mM sulfo-NHS, 400 mM EDC (all reconstituted in MES pH 5.5; 100 μl of each mixed in vial immediately before running assay). After switching to the multi-channel array flow cell, the antibodies were injected over the activated chip in a 96-spot array for 15 minutes. A duplicate injection of the antibodies on a second block of the chip was spotted as before. The remaining unconjugated active groups on the chip were then blocked by injecting 1M Ethanolamine pH 8.5 (Carterra) for 7 minutes using the single channel flow cell.
(§2) After priming with running buffer (HBS-TE, Carterra) with 0.5 mg/ml BSA (Sigma), the immobilized anti-MerTK antibodies were tested for their ability to bind to several forms of recombinant MerTK extracellular domain, including that of human, cynomolgus, and mouse orthologs as described above. Estimates of affinity were generated by injecting each analyte over the entire antibody array using the single channel flow cell. […] Dissociation was followed for 300 seconds before regenerating after each injection with 2×30 seconds of 10 mM Glycine pH2.5. Three buffer blanks were run between each series (one species per series). After all concentrations of all three species of MerTK were injected, a duplicate set of injections was performed, so that each concentration for all three species was injected in widely spaced duplicates. Data were processed and analyzed using NextGenKIT high-throughput kinetics analysis software (Carterra).
B4: the binding result is “no binding”.

With B5, the binding result was “no binding”.

As to B6, the binding result was “no binding”.

The next assay shares this target. The assay can be described thus: SPR (Carterra LSA), antibody immobilized, MerTK ECD as analyte; estimate, fits not ideal for a 1:1 model. On the procedure: as §1, §2
B1: the Kd was 40 nM.

Take B2: the dissociation constant (Kd) was 40 nM.

Regarding B3, the Kd was 50 nM.

The next assay has as its target T3, human MerTK overexpressed on CHO cells. The assay can be described thus: flow cytometry on CHO-huMerTK OE cells, Dylight650-conjugated antibody; average FACS Kd from Prism fit of MFI. An excerpt:
Human macrophages were differentiated from human monocytes for 7 days in the presence of human M-CSF, resulting in M2c-differentiated human macrophages. After 7 days, the differentiated human macrophages were harvested (by scraping), resuspended in PBS, and plated on 96-well plates for use. CHO cells overexpressing human MerTK (CHO-huMerTK OE), CHO cells overexpressing human PDL1 (CHO-huPDL1 OE), and M2c-differentiated human macrophages were stained with Dylight650-conjugated bispecific anti-MerTK:anti-PDL1 antibodies, or bivalent anti-MerTK antibodies for 30 min on ice. A range of antibody concentrations were used in these studies to obtain binding curves. All antibodies tested in these studies were IgG1 having Fc regions comprising LALAPS mutations. Cells were fixed and then acquired on a BD FACS Canto II cytometer. The mean fluorescence intensity (MFI) was calculated using FlowJo software and Kd value was calculated using Prism software.
For the molecule B1, binding was characterised by a dissociation constant (Kd) of 4.97 nM.

B2 registered a Kd of 3.25 nM.

B3: the Kd is 0.439 nM.

In the case of B4, binding was put at a Kd of 40.5 nM.

For the molecule B5, the Kd is 42.5 nM.

Molecule B6 had a Kd of 48.3 nM.

Values taken from patent publication US20240279341A1 (Alector, published 2024).
